What was measured:
[1] = target: Stat1tc, phosphorylated Tyr701 (Homo sapiens) (UniProt P42224); assay: EMSA
[2] = target: T1, Stat1alpha, phosphorylated Tyr701 (Homo sapiens, UniProt P42224 P42224:1-750); assay: EMSA; apparent Keq, dimer; 40 mM KCl, 10 mM MgCl2, 10 mM CaCl2, RT; complex half-life <0.5 min; conditions: tags: baculovirus/Sf9; NEM-alkylated; phosphorylated in vitro by EGF-receptor kinase; chain copies: 2; label: 32P; protruding 5'-TCC
[3] = target: T1, Stat1alpha, phosphorylated Tyr701; assay: EMSA; binding unaffected by NEM alkylation; no difference from Stat1tc in off-rate; conditions: tags: baculovirus/Sf9; NEM-alkylated; phosphorylated in vitro by EGF-receptor kinase; chain copies: 2; label: 32P; protruding 5'-TCC
Text: Figure 3A: FIG. 3A. DNA binding of purified phosphorylated Stat1α (lane 1) and Stat1tc (lane 2) using as a probe the radioactively labelled cfosWT sequence. Binding reactions contained equimolar amounts of the respective proteins. The position of migration of the free DNA probe (free) and the protein/DNA complex (bound) is indicated. Note the presence of a slower migrating band only with the full length Stat1α, lane 1 (see also FIG. 3B). Figure 3B: FIG. 3B. Influence of cysteine alkylation on the DNA binding activity of Stat1α. A mixture of phosphorylated and unphosphorylated protein (0.23 µM final; ~15% phosphoprotein) was reacted in the presence of 0.8 mM DTT and the indicated concentrations of N-ethyl-maleimide (NEM) for 20 min at room temperature in a volume of 12.5 µl. The reaction was stopped with DTT (final concentration of 10 mM) followed by the addition of 1.5 pmoles of labelled probe (cfosM67). Samples were resolved on a 4.5% native polyacrylamide gel. (M) denotes the position of bromophenol blue (lower) and xylene cyanol (upper) markers.
Electrophoretic mobility shift assays (EMSA) (Fried and Crothers, 1981; Garner and Revzin, 1981) were used to test DNA binding of tyrosine phosphorylated Stat1α and Stat1tc. […] In addition, the DNA binding ability of homodimeric phosphorylated Stat1α or its truncated form was highly resistant to up to 2 Molar monovalent salt concentrations.

[4] = target: T1, Stat1alpha, phosphorylated Tyr701; assay: EMSA; 2x(dimer) complex stable, >30 min for partial displacement by 100x competitor; conditions: tags: baculovirus/Sf9; NEM-alkylated; phosphorylated in vitro by EGF-receptor kinase; chain copies: 2; label: 32P; protruding 5'-TCC; two tandem sites
Protocol: Under the reaction conditions described above, each oligonucleotide (at 2×10^-9 M or otherwise stated) was mixed with 0.55×10^-9 M dimer of purified phosphorylated Stat1 protein. The reaction volume was scaled up to 100 μl. The reaction was incubated for 5–15 min at room temperature and for time zero, an aliquot (10 μl) was removed and loaded directly onto a pre-run polyacrylamide gel (see above). Afterwards, a 100×molar excess of homologous unlabelled DNA (in less than 1% of the reaction volume) was added. At subsequent time points (indicated in FIGS. 5C–5D, and 7) 10 μl aliquots were withdrawn and also loaded onto the running gel (at 10 V/cm). After entering the final time point (after 30–45 min), electrophoresis was continued at 20 V/cm until the unbound labelled DNA-fraction reached the bottom of the gel. Gels were dried, exposed to X-ray film and labelled protein/DNA complexes and unbound labelled DNA were quantitated as described above. The half life was determined from a semi-log plot of the numerical data (shifted radioactivity over shifted radioactivity at time zero versus time). For many sequences studied, the half life was too short ([…]) to be determined by EMSA. All experiments were performed at least twice with the different oligonucleotides. […]

[5] = target: Stat1beta, phosphorylated Tyr701 (Homo sapiens, UniProt P42224-2 P42224-2:1-712); assay: EMSA; 2x(dimer) complex stabilized as with Stat1alpha; conditions: tags: baculovirus/Sf9; NEM-alkylated; phosphorylated in vitro by EGF-receptor kinase; chain copies: 2; label: 32P; protruding 5'-TCC; two tandem sites
Chain of Stat1beta, phosphorylated Tyr701 (P42224 1-712, one chain of several): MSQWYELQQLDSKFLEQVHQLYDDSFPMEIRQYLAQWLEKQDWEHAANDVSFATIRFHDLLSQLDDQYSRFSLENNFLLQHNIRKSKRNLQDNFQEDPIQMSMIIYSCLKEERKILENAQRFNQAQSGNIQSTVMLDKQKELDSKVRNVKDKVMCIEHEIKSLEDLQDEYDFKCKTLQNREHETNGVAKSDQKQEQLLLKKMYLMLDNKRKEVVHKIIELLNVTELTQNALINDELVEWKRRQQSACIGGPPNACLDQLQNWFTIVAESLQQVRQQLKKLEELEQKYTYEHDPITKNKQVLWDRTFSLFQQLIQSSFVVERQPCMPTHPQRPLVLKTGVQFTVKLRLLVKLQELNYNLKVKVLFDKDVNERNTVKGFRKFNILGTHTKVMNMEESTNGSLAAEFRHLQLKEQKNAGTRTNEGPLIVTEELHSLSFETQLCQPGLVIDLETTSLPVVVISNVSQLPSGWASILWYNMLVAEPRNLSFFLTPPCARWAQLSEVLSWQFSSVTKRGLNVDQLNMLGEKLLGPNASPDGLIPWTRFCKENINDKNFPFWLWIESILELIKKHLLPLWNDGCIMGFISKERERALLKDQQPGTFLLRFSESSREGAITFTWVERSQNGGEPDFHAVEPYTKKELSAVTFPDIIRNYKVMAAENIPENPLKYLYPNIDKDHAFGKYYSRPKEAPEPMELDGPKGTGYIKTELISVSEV

[6] = target: T1, Stat1alpha, phosphorylated Tyr701; assay: EMSA; stabilization indistinguishable from 10 bp spacing; conditions: tags: baculovirus/Sf9; NEM-alkylated; phosphorylated in vitro by EGF-receptor kinase; chain copies: 2; label: 32P; protruding 5'-TCC; two tandem sites
Protocol: Under the reaction conditions described above, each oligonucleotide (at 2×10^-9 M or otherwise stated) was mixed with 0.55×10^-9 M dimer of purified phosphorylated Stat1 protein. The reaction volume was scaled up to 100 μl. The reaction was incubated for 5–15 min at room temperature and for time zero, an aliquot (10 μl) was removed and loaded directly onto a pre-run polyacrylamide gel (see above). Afterwards, a 100×molar excess of homologous unlabelled DNA (in less than 1% of the reaction volume) was added. At subsequent time points (indicated in FIGS. 5C–5D, and 7) 10 μl aliquots were withdrawn and also loaded onto the running gel (at 10 V/cm). After entering the final time point (after 30–45 min), electrophoresis was continued at 20 V/cm until the unbound labelled DNA-fraction reached the bottom of the gel. Gels were dried, exposed to X-ray film and labelled protein/DNA complexes and unbound labelled DNA were quantitated as described above. The half life was determined from a semi-log plot of the numerical data (shifted radioactivity over shifted radioactivity at time zero versus time). For many sequences studied, the half life was too short ([…]) to be determined by EMSA. All experiments were performed at least twice with the different oligonucleotides.
Figure 7B: FIG. 7B. […]

Chain of Stat1tc, phosphorylated Tyr701 (Homo sapiens) (P42224 whole entry): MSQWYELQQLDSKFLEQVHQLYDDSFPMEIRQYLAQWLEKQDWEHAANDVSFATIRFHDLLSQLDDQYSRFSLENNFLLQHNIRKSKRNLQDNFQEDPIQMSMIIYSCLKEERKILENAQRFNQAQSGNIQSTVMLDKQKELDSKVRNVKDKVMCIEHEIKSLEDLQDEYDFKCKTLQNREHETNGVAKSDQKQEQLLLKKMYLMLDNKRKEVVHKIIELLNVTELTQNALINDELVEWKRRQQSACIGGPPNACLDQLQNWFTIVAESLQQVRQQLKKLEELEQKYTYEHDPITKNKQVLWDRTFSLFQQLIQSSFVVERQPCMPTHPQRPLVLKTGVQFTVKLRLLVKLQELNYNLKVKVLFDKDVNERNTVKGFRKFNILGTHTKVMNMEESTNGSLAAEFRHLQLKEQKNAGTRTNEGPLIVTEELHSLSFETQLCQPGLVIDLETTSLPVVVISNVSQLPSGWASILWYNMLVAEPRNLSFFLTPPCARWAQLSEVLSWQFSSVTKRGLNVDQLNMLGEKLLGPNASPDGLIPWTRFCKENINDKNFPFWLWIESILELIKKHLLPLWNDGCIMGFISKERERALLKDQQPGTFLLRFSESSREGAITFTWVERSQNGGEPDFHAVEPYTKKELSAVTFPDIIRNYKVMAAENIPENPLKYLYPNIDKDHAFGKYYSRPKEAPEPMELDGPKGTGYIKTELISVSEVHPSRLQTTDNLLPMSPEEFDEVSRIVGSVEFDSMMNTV
T1 sequence (P42224 whole entry, one chain of several): as the sequence (P42224 whole entry) above

## GTTGTTCCGGGAAAAGG (double strand) [S1]
[1]; dimer concentration at half saturation, strong site
  Kd: 1 nM

## GTATTCCTGTAAGATCT (double strand) [Ly6E]
[1]; dimer concentration at half saturation, weak site
  Kd: 1 nM

## GATTTCCCGTAAATCAT (double strand) [cfosM67]
[1]; stated as same result for several oligonucleotides, complex half-life about 3 min (FIG. 5D)
  Kd: 1 nM

## GTATTCCCGTCAATGCA (double strand) [cfosWT]
[1]; apparent Keq, dimer, 40 mM KCl, 10 mM MgCl2, 10 mM CaCl2, RT
  Kd: 1 nM

B1: cfosWT (dsDNA)
DNA 1: GTATTCCCGTCAATGCA
DNA 2: TGCATTGACGGGAATAC
[2]
  Kd: ~1 nM

B2: cfosM67 (dsDNA)
DNA 1: GATTTCCCGTAAATCAT
DNA 2: ATGATTTACGGGAAATC
[3]
  binding result: binds

B3: 2x cfosWT (10 bp spacing) (dsDNA)
DNA 1: AGTCAGTTCCCGTCAATGCATCAGGTTCCCGTCAATGCAT
DNA 2: ATGCATTGACGGGAACCTGATGCATTGACGGGAACTGACT
[4]
  binding result: binds
[5]
  binding result: binds

B4: 2x cfosWT (15 bp spacing) (dsDNA)
DNA 1: AGTCAGTTCCCGTCAATGATCGCTACAGAGTTCCCGTCAAGCA
DNA 2: TGCTTGACGGGAACTCTGTAGCGATCATTGACGGGAACTGACT
[6]
  binding result: binds

— patent US6030780, “Purified Stat proteins and methods of purifying thereof” (The Rockefeller University)
